For series [1], the system named is tau isoform 1N4R (4R tau, MAPT) (Homo sapiens), P10636-7. The experiment in a line: SPR. To be noted: 50 mM HEPES, 25 mM NaCl, 0.1% Tween-20, pH 7.4.
For series [2], the system named is tau isoform 1N3R (3R tau, MAPT) (Homo sapiens), P10636-4. The experiment in a line: SPR. To be noted: 50 mM HEPES, 25 mM NaCl, 0.1% Tween-20, pH 7.4; poly(A) length not restated for 3R.
Sequence of tau isoform 1N3R (3R tau, MAPT) (Homo sapiens), P10636-4 (P10636 other isoform, or with tags, fused parts or gaps): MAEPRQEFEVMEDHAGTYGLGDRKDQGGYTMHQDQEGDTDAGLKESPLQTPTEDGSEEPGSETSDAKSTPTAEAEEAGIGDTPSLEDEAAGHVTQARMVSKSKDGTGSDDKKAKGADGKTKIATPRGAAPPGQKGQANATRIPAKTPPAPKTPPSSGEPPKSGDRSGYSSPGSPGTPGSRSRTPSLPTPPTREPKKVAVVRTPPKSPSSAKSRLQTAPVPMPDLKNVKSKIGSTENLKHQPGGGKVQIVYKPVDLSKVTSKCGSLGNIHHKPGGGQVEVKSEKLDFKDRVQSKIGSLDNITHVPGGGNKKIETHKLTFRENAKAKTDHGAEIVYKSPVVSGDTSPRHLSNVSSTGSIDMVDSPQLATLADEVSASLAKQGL

Sequence of tau isoform 1N4R (4R tau, MAPT) (Homo sapiens), P10636-7 (P10636 other isoform, or with tags, fused parts or gaps): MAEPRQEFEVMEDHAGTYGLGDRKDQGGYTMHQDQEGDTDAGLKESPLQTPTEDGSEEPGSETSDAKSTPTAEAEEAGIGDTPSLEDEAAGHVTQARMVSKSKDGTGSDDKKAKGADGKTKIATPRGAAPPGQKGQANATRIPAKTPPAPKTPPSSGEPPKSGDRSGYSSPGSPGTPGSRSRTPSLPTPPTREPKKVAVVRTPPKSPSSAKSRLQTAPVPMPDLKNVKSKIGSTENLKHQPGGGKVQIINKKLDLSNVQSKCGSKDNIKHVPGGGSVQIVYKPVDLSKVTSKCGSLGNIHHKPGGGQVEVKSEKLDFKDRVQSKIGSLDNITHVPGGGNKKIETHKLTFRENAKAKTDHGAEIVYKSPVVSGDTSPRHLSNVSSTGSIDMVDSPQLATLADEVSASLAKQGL

The Kd is a measure of binding affinity in units of concentration. Regarding A [biotin poly(A)20 RNA], the Kd in series [1] (streptavidin chip, poly(A)20 length from FIG. 1B trace) came out at 7.2 nM; in series [2], 8.3 nM.

In the case of biotin tRNA-Lys, in series [1], the Kd was over 30 nM.

The record behind these values is patent US20240352102.
